Laboratory results taken from PMC8284805, “Mechanism underlying the DNA-binding preferences of the Vibrio cholerae and vibriophage VP882 VqmA quorum-sensing receptors”.

Tests used:
[1] = target: GST-DBDVc (GST fused to the N-terminus of the VqmAVc DNA-binding domain) (not stated | Vibrio cholerae); test: SEC; gel filtration of the purified proteins, UV280 traces (S3D Fig)
[2] = target: GST-DBDPhage (GST fused to the N-terminus of the VqmAPhage DNA-binding domain) (not stated | vibriophage VP882); test: as above
[3] = test system: GST-DBDPhage (Vibriophage VP882); test: EMSA; details: EMSA: 25 nM DNA, 18.75-600 nM protein (dimer), 6% DNA retardation gel, SYBR Green; buffer, pH and temperature not given (cited protocol); EC50 values only in …
VqmAPhage [4] = target: T1, VqmAPhage (Vibriophage VP882, UniProt A2I306 1-235); test: EMSA; EMSA: 25 nM DNA, 18.75-600 nM protein (dimer), 6% DNA retardation gel, SYBR Green; buffer, pH and temperature not given (cited protocol); EC50 values only in S2A Fig; details: protein: recombinant; chain copies: 2; blunt
T1 sequence: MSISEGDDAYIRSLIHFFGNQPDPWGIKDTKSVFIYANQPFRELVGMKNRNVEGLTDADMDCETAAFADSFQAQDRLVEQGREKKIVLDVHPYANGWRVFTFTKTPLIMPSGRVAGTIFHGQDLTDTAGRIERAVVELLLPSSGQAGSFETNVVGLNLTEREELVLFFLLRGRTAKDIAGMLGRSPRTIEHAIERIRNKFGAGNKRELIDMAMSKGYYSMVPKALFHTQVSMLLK

VqmAPhage [5] = target: T1, VqmAPhage; test: EMSA; half as strong as PvqmR*; EMSA: 25 nM DNA, 18.75-600 nM protein (dimer), 6% DNA retardation gel, SYBR Green; buffer, pH and temperature not given (cited protocol); EC50 values only in S2A Fig; details: protein: recombinant; chain copies: 2; blunt
VqmAVc = VqmAVc (Vibrio cholerae, UniProt A0A0F0AZW0 1-246); test: EMSA; EMSA: 25 nM DNA, 18.75-600 nM protein (dimer), 6% DNA retardation gel, SYBR Green; buffer, pH and temperature not given (cited protocol); EC50 values only in S2A Fig; details: protein: recombinant; chain copies: 2; blunt

For “GST-DBDVc (GST fused to the N-terminus of the VqmAVc DNA-binding domain)”, the stoichiometry N [1] was 2.

For “GST-DBDPhage (GST fused to the N-terminus of the VqmAPhage DNA-binding domain)”, the stoichiometry N [2] was 2.

“GAATACACTCCTTGTAAGTGATTGTTATAAGGAGCTTTATTCTTGATGCATATAAGAAATACCGATAGGGGGAAAAATACCCTGATAAGCAGCTGCTAAAATTGATAAATGTCAATAAGCGAAGGGGATGATGC (double strand) [Pqtip]” gave a binding signal (fold stronger than PvqmR) [3] of 5.

B1: PvqmR* (dsDNA)
DNA 1: TCCGAGTATTGCGCGAGCTGTAATGTTGACTCAAACAATTATGCATAAAGGGGGGAAAAATACCCTTTTTCATTTGTACCGCGTTCGGTAAAGTACAAAC
DNA 2: GTTTGTACTTTACCGAACGCGGTACAAATGAAAAAGGGTATTTTTCCCCCCTTTATGCATAATTGTTTGAGTCAACATTACAGCTCGCGCAATACTCGGA
B1 was tested, and the binding signal (VqmAPhage [4]) was roughly 2 fold stronger than Pqtip*.

B2: Pqtip* (dsDNA)
DNA 1: GTGATTGTTATAAGGAGCTTTATTCTTGATGCATATAAGAAATACCGATAGGGGGATTTCCCCCCTGATAAGCAGCTGCTAAAATTGATAAATGTCAATA
DNA 2: TATTGACATTTATCAATTTTAGCAGCTGCTTATCAGGGGGGAAATCCCCCTATCGGTATTTCTTATATGCATCAAGAATAAAGCTCCTTATAACAATCAC
B2: binds (VqmAPhage [5]); binds (VqmAVc).
